For orientation: Kd means the constant that tells how readily two partners part at equilibrium.

This is an account of results in patent US20070286806A1, “Methods and Compositions for Modulating a Steroid Receptor” (Mount Sinai Hospital, priority 2004, published 2007).

Assay [1] deals with myometrial progesterone receptors. To be noted: cited from earlier work.
Assay [2] concerns the target T1, progesterone receptor isoform B (PRB), full length (Homo sapiens (Human), UniProt P06401 1-933).
T1 construct: From expression vector pSG5 PRB; expressed in 293T or SHM cells, or translated in rabbit reticulocyte lysate with ^35S methionine for the GST pulldown; also called ^35S-labeled PRB; full length PR
T1 sequence: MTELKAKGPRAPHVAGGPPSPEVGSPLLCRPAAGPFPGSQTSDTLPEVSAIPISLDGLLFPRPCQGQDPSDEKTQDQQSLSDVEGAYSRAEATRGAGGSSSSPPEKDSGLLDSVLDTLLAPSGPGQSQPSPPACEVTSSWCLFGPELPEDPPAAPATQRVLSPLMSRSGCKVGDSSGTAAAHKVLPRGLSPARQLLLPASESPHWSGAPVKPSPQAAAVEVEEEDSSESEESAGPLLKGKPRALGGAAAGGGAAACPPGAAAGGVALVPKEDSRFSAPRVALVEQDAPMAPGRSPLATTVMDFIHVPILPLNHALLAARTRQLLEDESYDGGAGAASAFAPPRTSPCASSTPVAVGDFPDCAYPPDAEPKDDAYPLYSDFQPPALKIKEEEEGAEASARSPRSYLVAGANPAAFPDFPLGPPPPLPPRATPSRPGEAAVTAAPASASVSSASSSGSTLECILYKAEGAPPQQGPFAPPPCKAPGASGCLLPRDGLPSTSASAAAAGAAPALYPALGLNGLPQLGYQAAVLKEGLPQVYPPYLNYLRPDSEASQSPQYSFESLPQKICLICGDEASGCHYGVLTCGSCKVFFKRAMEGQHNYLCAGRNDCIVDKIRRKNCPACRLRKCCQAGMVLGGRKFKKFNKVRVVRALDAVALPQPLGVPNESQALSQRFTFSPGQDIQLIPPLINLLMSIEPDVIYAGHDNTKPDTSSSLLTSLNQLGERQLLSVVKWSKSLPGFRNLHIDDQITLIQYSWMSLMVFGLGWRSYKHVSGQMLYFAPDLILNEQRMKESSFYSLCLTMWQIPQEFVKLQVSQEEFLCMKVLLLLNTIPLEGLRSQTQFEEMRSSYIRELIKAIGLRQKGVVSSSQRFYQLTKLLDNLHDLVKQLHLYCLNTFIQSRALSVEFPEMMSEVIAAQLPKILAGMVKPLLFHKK
The assay is described as follows: summary of Example 1; in vivo and in vitro protein interaction assays.

The target in assay [3] is T2, PR DNA binding domain / PRE (Homo sapiens, UniProt P06401).
T2 construct: PR 556-650 was also inserted downstream of T7 promoter of pcDNA3; made in house; host or cells: rabbit reticulocyte lysate (TNT, Promega); GST-PSF from E. coli
T2 sequence (P06401 556-650): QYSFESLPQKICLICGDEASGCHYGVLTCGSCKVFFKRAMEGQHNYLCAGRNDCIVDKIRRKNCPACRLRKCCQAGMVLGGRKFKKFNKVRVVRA
The assay is described as follows: Electrophoretic Mobility Shift Assay of PR binding to PRE. The note with it: in vitro translated PRDBD, 32P-labeled PRE. The protocol:
(§1) FIG. 8. PSF interferes with binding of PR DNA binding domain to PRE. (A) Electrophoretic mobility shift assay was performed with ^32P-labeled PRE incubated with in vitro translated PRDBD (1, 2, 5μl in lane 3 to 5 and 2 μl in lane 6 to 11) and increasing amount of bacterially expressed GST (lane 6 to 8) or GST PSF (lane 9 to 11). TNT lysate (lane 2) was used as negative control. (B) PR-Nuclear extraction (1 and 2 μg) as described in the method was incubated with PRE oligo in a dose dependent manner (lane 2 and 3). Anti-PR antiserum (AB-52) was added to the incubation mixture (lane 4). Addition of increasing dose (1 and 2 μl) of GST or GST-PSF in the same reaction as lane 3 was shown in lane 6, 7 and 9, 10. In the control experiments (lane 5 and 8), GST or GST-PSF was incubated with PRE without adding PR-nuclear extract. All reactions contain 10 nM progesterone.
(§2) For immunoprecipitation of the endogenous PR and PSF, T47D cells cultured in 150 mm dishes were lysed in 800 μl NETN buffer containing 150 mM NaCl plus protease inhibitor cocktail. […] Gels were treated with Enhancer (NEN, Boston, US) dried and analyzed by autoradiography. • Cell culture and transient transfection: SHM cells and 293T cells were maintained in DMEM plus 5% FCS (Sigma) as described before (22). […] Luciferase activity was determined by using the luciferin reagent (Promega) according to manufacture's protocol. […]
On the technique in general: A gel shift assay detects complexes by their altered migration in electrophoresis.

Assay [4] concerns the target T3, PR DNA binding domain / PRE (Homo sapiens, UniProt P06401).
T3 construct: PR 556-650 was also inserted downstream of T7 promoter of pcDNA3; made in house; host or cells: rabbit reticulocyte lysate (TNT, Promega); GST-PSF from E. coli
T3 sequence (P06401 1-933): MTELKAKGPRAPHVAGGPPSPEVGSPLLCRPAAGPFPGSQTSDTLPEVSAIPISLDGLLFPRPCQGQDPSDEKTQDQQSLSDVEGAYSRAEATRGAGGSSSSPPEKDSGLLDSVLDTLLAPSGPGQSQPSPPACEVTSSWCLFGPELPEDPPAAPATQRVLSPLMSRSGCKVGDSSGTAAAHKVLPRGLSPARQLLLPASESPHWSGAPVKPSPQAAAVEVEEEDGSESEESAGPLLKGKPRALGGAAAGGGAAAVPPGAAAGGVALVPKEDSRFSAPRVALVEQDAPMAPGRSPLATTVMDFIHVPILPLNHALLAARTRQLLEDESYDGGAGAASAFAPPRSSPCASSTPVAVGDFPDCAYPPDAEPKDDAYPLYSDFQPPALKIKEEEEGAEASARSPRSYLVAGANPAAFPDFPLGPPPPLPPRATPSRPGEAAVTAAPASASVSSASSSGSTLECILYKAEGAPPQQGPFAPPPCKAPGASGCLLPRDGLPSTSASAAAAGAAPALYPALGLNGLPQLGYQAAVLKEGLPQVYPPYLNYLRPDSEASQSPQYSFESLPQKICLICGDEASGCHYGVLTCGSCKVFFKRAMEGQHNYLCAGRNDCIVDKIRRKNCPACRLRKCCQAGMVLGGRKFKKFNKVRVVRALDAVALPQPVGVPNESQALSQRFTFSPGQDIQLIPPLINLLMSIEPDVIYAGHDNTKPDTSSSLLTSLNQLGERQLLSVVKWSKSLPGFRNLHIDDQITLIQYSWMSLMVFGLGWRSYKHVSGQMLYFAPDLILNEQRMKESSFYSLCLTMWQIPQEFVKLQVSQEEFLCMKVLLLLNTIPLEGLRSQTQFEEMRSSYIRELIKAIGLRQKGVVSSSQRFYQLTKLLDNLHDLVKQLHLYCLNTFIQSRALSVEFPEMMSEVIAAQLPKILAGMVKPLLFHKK
Described as above. The note with it: nuclear extract of 293T cells transfected with Flag-PRB, increasing doses. The protocol: as §1, §2

On to `CC(=O)[C@H]1CC[C@H]2[C@@H]3CCC4=CC(=O)CC[C@]4(C)[C@H]3CC[C@]12C` [progesterone], for which the Kd in assay [1] was 1 nM.

B1: His-PSF (6xHis-tagged full length human PSF, amino acid 1-707) (other)
chain: MSRDRFRSRGGGGGGFHRRGGGGGRGGLHDFRSPPPGMGLNQNRGPMGPGPGQSGPKPPIPPPPPHQQQQQPPPQQPPPQQPPPHQPPPHPQPHQQQQPPPPPQDSSKPVVAQGPGPAPGVGSAPPASSSAPPATPPTSGAPPGSGPGPTPTPPPAVTSAPPGAPPPTPPSSGVPTTPPQAGGPPPPPAAVPGPGPGPKQGPGPGGPKGGKMPGGPKPGGGPGLSTPGGHPKPPHRGGGEPRGGRQHHPPYHQQHHQGPPPGGPGGRSEEKISDSEGFKANLSLLRRPGEKTYTQRCRLFVGNLPADITEDEFKRLFAKYGEPGEVFINKGKGFGFIKLESRALAEIAKAELDDTPMRGRQLRVRFATHAAALSVRNLSPYVSNELLEEAFSQFGPIERAVVIVDDRGRSTGKGIVEFASKPAARKAFERCSEGVFLLTTTPRPVIVEPLEQLDDEDGLPEKLAQKNPMYQKERETPPRFAQHGTFEYEYSQRWKSLDEMEKQQREQVEKNMKDAKDKLESEMEDAYHEHQANLLRQDLMRRQEELRRMEELHNQEMQKRKEMQLRQEEERRRREEEMMIRQREMEEQMRRQREESYSRMGYMDPRERDMRMGGGGAMNMGDPYGSGGQKFPPLGGGGGIGYEANPGVPPATMSGSMMGSDMRTERFGQGGAGPVGGQGPRGMGPGTPAGYGRGREEYEGPNKKPRF
notes: Expressed in 293T or SHM cells (co-immunoprecipitation, reporter assays) or translated in rabbit reticulocyte lysate with ^35S methionine (GST pulldown); 1 only as 'e.g.' of wild type PSF; also called His tagged PSF; His tagged PSF1-707; not shown: N-terminal 6xHis tag of vector pcDNA3.1 6xHis
As to B1, in assay [2], the binding result is “binds”.

B2: GST-PSF: bacterially expressed GST-PSF fusion protein (protein)
chain: MSRDRFRSRGGGGGGFHRRGGGGGRGGLHDFRSPPPGMGLNQNRGPMGPGPGQSGPKPPIPPPPPHQQQQQPPPQQPPPQQPPPHQPPPHPQPHQQQQPPPPPQDSSKPVVAQGPGPAPGVGSAPPASSSAPPATPPTSGAPPGSGPGPTPTPPPAVTSAPPGAPPPTPPSSGVPTTPPQAGGPPPPPAAVPGPGPGPKQGPGPGGPKGGKMPGGPKPGGGPGLSTPGGHPKPPHRGGGEPRGGRQHHPPYHQQHHQGPPPGGPGGRSEEKISDSEGFKANLSLLRRPGEKTYTQRCRLFVGNLPADITEDEFKRLFAKYGEPGEVFINKGKGFGFIKLESRALAEIAKAELDDTPMRGRQLRVRFATHAAALSVRNLSPYVSNELLEEAFSQFGPIERAVVIVDDRGRSTGKGIVEFASKPAARKAFERCSEGVFLLTTTPRPVIVEPLEQLDDEDGLPEKLAQKNPMYQKERETPPRFAQHGTFEYEYSQRWKSLDEMEKQQREQVEKNMKDAKDKLESEMEDAYHEHQANLLRQDLMRRQEELRRMEELHNQEMQKRKEMQLRQEEERRRREEEMMIRQREMEEQMRRQREESYSRMGYMDPRERDMRMGGGGAMNMGDPYGSGGQKFPPLGGGGGIGYEANPGVPPATMSGSMMGSDMRTERFGQGGAGPVGGQGPRGMGPGTPAGYGRGREEYEGPNKKPRF
modifications: left off: a dimerising Fc or GST
notes: bacterially expressed GST-PSF fusion protein
For B2, in assay [3], the “association of PRDBD to PRE” value is listed as “decreased association of PRDBD to PRE”. The “association of full-length PR to PRE” value in assay [4] was “decrease of association of PR to PRE”.
